Results as given in patent US20230071765A1, “COMPOSITIONS HAVING THIOREDOXIN ACTIVITY AND RELATED METHODS” (ORPRO THERAPEUTICS, INC., priority 2020, published 2023).

Biological target: human insulin (disulfide-bonded heterodimer) (human) (UniProt P01308)
Test: cell-based or functional assay

human insulin (disulfide-bonded heterodimer) (human), sequence (P01308 90-110 limits assumed, chain 1 of 2): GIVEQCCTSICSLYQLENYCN
human insulin (disulfide-bonded heterodimer) (human), sequence (P01308 25-54 limits assumed, chain 2 of 2): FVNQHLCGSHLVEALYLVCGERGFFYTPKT

Relative % insulin reduction (ORP100S Ox 0 : Red 100) (% relative to maximum) | Relative % insulin reduction (ORP100S mixture Ox 25 : Red 75) (% relative to maximum) | Relative % insulin reduction (ORP100S mixture Ox 50 : Red 50) (% relative to maximum) | Relative % insulin reduction (ORP100S mixture Ox 75 : Red 25) (% relative to maximum) | maximum insulin heterodimer reaction with fully reduced material (RP-HPLC insulin reduction assay) | Relative % insulin reduction (ORP100S Ox 100 : Red 0) (% relative to maximum) | Binder
100 | 72 | 51 | 36 | 45% |  | ORP100S (fully monocysteinic human thioredoxin-1, reduced form) (enzyme) VKQIESKTAFQEALDAAGDKLVVVDFSATWCGPSKMIKPFFHSLSEKYSNVIFLEVDVDDSQDVASESEVKSMPTFQFFKKGQKVGEFSGANKEKLEATINELV
 |  |  |  |  | 8 | oxidized ORP100S treated with iodacetamide (IA) (enzyme, Cys32 oxidized / treated with iodoacetamide, as printed: 'oxidized ORP100S treated with iodacetamide (IA)') VKQIESKTAFQEALDAAGDKLVVVDFSATWCGPSKMIKPFFHSLSEKYSNVIFLEVDVDDSQDVASESEVKSMPTFQFFKKGQKVGEFSGANKEKLEATINELV
